Here are results for 5 molecules from patent publication US12497460B2, “Anti-MSR1 antibodies and methods of use thereof” (REGENERON PHARMACEUTICALS, INC., priority 2018, dated 2025).

Assay [1] has as its target T1, His9-hMSR1 (human MSR1 extracellular domain) (Homo sapiens, UniProt P21757).
T1 construct: human MSR1 extracellular domain expressed with a N-terminal nonahistidine tag; His9 (nonahistidine) (N); purchased R&D Systems 2708-MS
T1 sequence (P21757 77-451 limits assumed): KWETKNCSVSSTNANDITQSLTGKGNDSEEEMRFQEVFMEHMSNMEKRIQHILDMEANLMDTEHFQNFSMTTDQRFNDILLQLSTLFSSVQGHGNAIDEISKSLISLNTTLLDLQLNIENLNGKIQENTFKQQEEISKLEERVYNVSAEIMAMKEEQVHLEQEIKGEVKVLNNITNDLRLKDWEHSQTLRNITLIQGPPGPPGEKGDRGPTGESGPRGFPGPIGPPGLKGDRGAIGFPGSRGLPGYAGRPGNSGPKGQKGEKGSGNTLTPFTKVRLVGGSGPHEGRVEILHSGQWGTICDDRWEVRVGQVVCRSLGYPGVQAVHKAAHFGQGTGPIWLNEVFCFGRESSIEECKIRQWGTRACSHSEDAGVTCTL
Kind of assay: Biacore surface plasmon resonance binding kinetics of anti-MSR1 mAbs, antibody-capture format. The settings on record: analyte His9-hMSR1, NB = no binding observed; for kd: * = no dissociation observed, kd manually fixed at 1.00E−05; for ka: antibody-capture format; for Kd: calculated from kinetic rates; for t½: dissociative half-life. As to the method: Binding affinities and kinetic constants of human anti-MSR1 antibodies for different MSR1 reagents were determined by real-time surface plasmon resonance (Biacore 4000). All binding studies were performed in 10 mM HEPES, 150 mM NaCl, 3 mM EDTA, and 0.05% v/v Surfactant Tween-20, pH 7.4 (HBS-ET) running buffer at 25° C. and 37° C.
The association rate (ka) and dissociation rate (kd) were determined by fitting the real-time binding sensorgrams to a 1:1 binding model with mass transport limitation using Scrubber 2.0c curve-fitting software. Binding dissociation equilibrium constant (KD) and dissociative half-life (t½) were calculated from the kinetic rates as: […]

In assay [2] the target is T2, MSR1 on differentiated THP-1 cells (Homo sapiens, UniProt P21757).
T2 construct: endogenous in cells; host or cells: THP-1 cells differentiated with PMA
T2 sequence (P21757 1-451): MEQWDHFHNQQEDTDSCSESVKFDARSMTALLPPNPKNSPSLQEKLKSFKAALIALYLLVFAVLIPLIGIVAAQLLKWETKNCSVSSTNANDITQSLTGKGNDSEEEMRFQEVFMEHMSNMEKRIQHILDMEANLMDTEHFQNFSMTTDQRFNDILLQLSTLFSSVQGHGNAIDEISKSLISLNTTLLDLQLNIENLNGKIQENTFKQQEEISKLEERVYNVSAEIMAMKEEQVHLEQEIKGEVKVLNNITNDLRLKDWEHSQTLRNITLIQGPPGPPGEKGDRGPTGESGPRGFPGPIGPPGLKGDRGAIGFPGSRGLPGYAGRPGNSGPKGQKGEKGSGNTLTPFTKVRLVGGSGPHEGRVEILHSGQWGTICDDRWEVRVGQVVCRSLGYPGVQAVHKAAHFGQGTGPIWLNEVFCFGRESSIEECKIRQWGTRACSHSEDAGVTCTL
Kind of assay: Binding and internalization of cell-surface expressed MSR1 in differentiated THP-1 cells. The assay is classed as cell-based. The settings on record: 10 μg/mL antibody; for Total Binding at 37° C. / Total Internalized RFU: 37° C. As to the method:
Exemplary anti-MSR1 antibodies were assessed for their ability to bind and internalize MSR1 on MSR1-expressing cells.
The THP-1 cells were allowed to differentiate for 4 days at 37° C. in 5% CO2. […] The remaining two plates were incubated at 37° C. for 1 hour followed by fixation and staining for 20 minutes using a solution of 4% PFA+5 μM DRAQ5 diluted in PBS (internalization plates). After fixation, all plates were washed once with PBS. […] The remaining plates were incubated with PBS only. Confocal images were acquired on the Opera Phenix (Perkin Elmer) at 40× magnification. […] The total binding at 4° C. (RFU values of 4° C. unquenched wells), total binding at 37° C. (RFU values of 37° C. unquenched wells), the total internalized RFU, and % Internalization were determined for each antibody as shown in Table 14.
For all calculations, background fluorescence from unstained wells was subtracted from every well. Total internalized RFU was calculated as follows: Total RFU of 37° C. unquenched samples−Surface RFU at 37° C. Surface RFU is defined as unquenched RFU at 37° C.−quenched RFU at 37° C.)/QE. QE (quenching efficiency) is defined as: 1−(Total RFU of 4° C. quenched sample/Total RFU of 4° C. unquenched sample). The % Internalization was determined from the following formula: (Total internalized RFU at 37° C./Total RFU at 37° C.)*100.

The target in assay [3] is T3, PMA-treated THP-1 cells (endogenously expressed human MSR1) (Homo sapiens, UniProt P21757).
T3 construct: endogenous in cells; host or cells: THP-1 cells differentiated with PMA
T3 sequence (P21757 1-451): T2 sequence (P21757 1-451)
Kind of assay: Electrochemiluminescence antibody binding assay on MSR1-expressing cells. The format is cell-based.

Assay [4] has as its target T4, MSR1-mediated Dil-AcLDL uptake in HEK293.Myc.hMSR1 cells (Homo sapiens, UniProt P21757).
T4 construct: expressed in transfected cells; host or cells: HEK293 (lentiviral transduction, hygromycin selection)
T4 sequence (P21757 1-451): T2 sequence (P21757 1-451)
Kind of assay: Ligand uptake assay, Dil-AcLDL. The format is cell-based. The settings on record: 10 μg/mL Dil-AcLDL; for Dil-Acetylated LDL % Inhibition: maximum inhibition. As for the experimental part: A bioassay was generated to assess the ability of the exemplary anti-MSR1 antibodies to regulate the uptake of certain MSR1 ligands.
Generation of MSR1-expressing cell lines for assay. […] The resulting cell line, referred to here as “HEK293.Myc.hMSR1”, was selected and maintained in DMEM containing 10% FIBS, NEAA, penicillin/streptomycin, L-glutamine, and 100 μg/mL hygromycin.
Ligand uptake assay. […] After 30 minutes, either oxidized or acetylated low-density lipoprotein (LDL) labeled with 1,1′dioctadecyl-3,3,3′,3′-tetramethylindocarbocyanine perchlorate (referred to as “Dil-OxLDL” or “Dil-AcLDL,” respectively) was added to the cells at a constant concentration of 10 μg/mL. […] Results were analyzed using nonlinear regression (4-parameter logistics) with the Prism 7 program to obtain EC50 and IC50 values. The percentage of inhibition was calculated with the Relative Fluorescent Unit (RFU) values by using the following equation: […]
In the equation, “RFUBaseline” is the fluorescence value from the cells treated with 10 μg/mL ligand without antibodies, “RFUInhibition” is the minimum fluorescence value with for a particular antibody with 10 μg/mL ligand, and “RFUBackground” is the fluorescence value from cells without any ligand or antibodies.

The next assay concerns parental HEK293 cells. The assay is described as follows: Electrochemiluminescence antibody binding assay, non-specific binding control cells. The format is cell-based, human.

B1: H1H27747P-N297Q (antibody, V domains shown)
VH: QVQLVESGGAVVQPGRSLRLSCAASGFTFSYYGMHWVRQAPGKGLEWVAVISYDGSKKYYADSVKGRFTISRDNSKNTLYLQMNSLRAEDTAVYYCAKDLTVDFYYGMDVWGQGTTVTVSS
VL: DIQMTQSPSSVSASVGDRVTITCRASQGISSWLAWYQQKPGKAPKLLIYATSSLQSGAPSRFSGSGSGTDFTLTISSLQPEDFATYFCQQANSFPYTFGQGTKLEIKR
Turning to B1, in assay [1] (25° C.), the kd worked out at 0.000652 s⁻¹ and the ka worked out at 243000 M⁻¹ s⁻¹. In assay [1] (37° C.), this molecule came in with a kd of 0.00276 s⁻¹ and a ka of 513000 M⁻¹ s⁻¹. In addition, in assay [2], the “% Internalization” value amounted to 58.2%, the “Total Binding at 4° C.” value amounted to 2518361, the “Total Binding at 37° C.” value was found to be 5917858 and the “Total Internalized RFU” value is 3444330 RFU.

B2: H1H27739P-N297Q: anti-MSR1 antibody "made with an N297Q single point mutation in human Fcγ portion" (antibody, V domains shown)
VH: EVQLVESGGGLVQPGGSLRLSCTASGFTFSSYAMSWVRQAPGKGLEWVSAISGTGSSTYFTDSVKGRFAISRDNSKNTLYLQMNSLRAEDTAVYYCAKDGEWLSTVTLFDYWGQGTLVTVSS
VL: EIVMTQSPATLSVSPGERATLSCRASQSVSSNLAWYQQKPGQAPRLLIYGASTRATGIPARFSGSGSGTDFTLTISSLQSEDFALYYCQQYFIWPPHPTFGPGTKVDIKR
For the molecule B2, in assay [1] (25° C.), the kd was found to be 0.00103 s⁻¹ and the ka is 375000 M⁻¹ s⁻¹. In assay [1] (37° C.), this molecule came in with a kd of 0.00288 s⁻¹ and a ka of 776000 M⁻¹ s⁻¹. Besides, in assay [3], the “Ratio of 11 nM Antibody Binding Signal (RLU) to isotype control, PMA-treated THP-1” value was determined as 9. Further, in assay [4], the “Dil-Acetylated LDL IC50” value is recorded as “no inhibition”, the “maximum inhibition of Dil-AcLDL uptake” value was “no inhibition” and the “Dil-Acetylated LDL % Inhibition” value is recorded as “no inhibition”. Besides, in assay [2], the “% Internalization” value stood at 71.6%, the “Total Binding at 4° C.” value is given as 3702857, the “Total Binding at 37° C.” value came out at 5608380 and the “Total Internalized RFU” value came out at 4016378 RFU.

B3: H1H21231N-N297Q: modified version of "21231N (H1H21231N-N297Q) anti-MSR1 antibodies" with "a N297Q single point mutation" (antibody, V domains shown)
VH: EVQLVESGGGLVQPGGSLRLSCAASGFTFSDHYMDWVRQAPGKGLEWVGRTRNKANSHTTEYTASVTGRFTISRDDSRNSLYLQMNSLKTEDTAVYYCVRAGIIGTLFDYWGQGTLVTVSS
VL: DIQMTQFPSSLSASVGDRVTITCRASQSISSFLNWFQQKPGKAPKFLIYAASSLQSGVPSRFSGSGSGTDFTLTISSLQPEDFATYYCQQSYSSPPITFGQGTRLEIKR
On to B3, for which, in assay [1] (25° C.), the kd turned out to be 5.88e-05 s⁻¹; the ka was 399000 M⁻¹ s⁻¹; the Kd (as a rule, the constant that tells how readily two partners part at equilibrium) was 147 pM; the t½ (usually the time in which the quantity being followed falls by half) was 3.27 h. For the same molecule, in assay [1] (37° C.), the kd worked out at 0.000115 s⁻¹, the ka is 534000 M⁻¹ s⁻¹, the Kd was 215 pM and the t½ came out at 1.68 h. For the same molecule, the “Dil-Acetylated LDL % Inhibition” value in assay [4] is 62%.

B4: H1H21231N: "anti-MSR1 antibodies ... (21227N, 21231N, 21234N) were produced with the original human Fcγ portion"; "H1H" = human IgG1 Fc (antibody, V domains shown)
VH: B3 VH
VL: B3 VL
modifications: human IgG1 Fc
notes: "anti-MSR1 antibodies ; (21227N, 21231N, 21234N) were produced with the original human Fcγ portion"; "H1H" = human IgG1 Fc
On to B4, for which, in assay [1] (25° C.), the kd is 1.00E−05* s^−1, the ka stood at 477000 M⁻¹ s⁻¹, the Kd was 21 pM and the t½ turned out to be 19.25 h. In addition, in assay [1] (37° C.), the kd turned out to be 9.09e-05 s⁻¹, the ka came out at 702000 M⁻¹ s⁻¹, the dissociation constant (Kd) was 130 pM and the t½ turned out to be 2.12 h. In addition, the “Ratio of 11 nM Antibody Binding Signal (RLU) to isotype control, PMA-treated THP-1” value in assay [3] came out at 42. In assay [4] (read-out: Dil-Acetylated LDL IC50), the IC50 – broadly, the concentration at which inhibition is half-maximal – was found to be 3500 pM. The “Dil-Acetylated LDL % Inhibition” value in assay [4] turned out to be 63%.

B5: H1H27729P-N297Q: anti-MSR1 antibody "made with an N297Q single point mutation in human Fcγ portion" (antibody, V domains shown)
VH: QVQLVESGGGLVKPGGSLRLSCAASGFIFSDYYMSWIRQAPGKGLEWVSYISSSGTTIYGDSVKGRFTMSRDNAKNSLYLQMNSLRAEDTAVYYCARNYALFDYWGQGTLVTVSS
VL: DIQMTQSPSSLSASVGDRVTITCQASQDISKYLNWYQQKPGKAPKLLIYYTSNLETGVPSRFSGSGSGTDFTFTISSLQPEDIATYYCHQSDYLPFTFGPGTKVDIKR
In the case of B5, in assay [1] (25° C.), the kd is 0.00107 s⁻¹ and the ka worked out at 197000 M⁻¹ s⁻¹. Besides, in assay [1] (37° C.), the kd was found to be 0.00204 s⁻¹ and the ka was determined as 239000 M⁻¹ s⁻¹. In the assay with parental HEK293 cells, the “Ratio of 11 nM Antibody Binding Signal (RLU) to isotype control, HEK293” value was determined as 3. In assay [2], the “% Internalization” value is 57.0%, the “Total Binding at 4° C.” value is reported as 1930685, the “Total Binding at 37° C.” value came out at 6607625 and the “Total Internalized RFU” value turned out to be 3763127 RFU.
